Experiments:
[1] = in the human body; cited from earlier work
[2] = cited from earlier work
[3] = patients, package insert; cited from earlier work
[4] = HT29 xenograft, bevacizumab-awwb concentration in excised tumors (HPLC); format: in vivo, athymic nude mice; conditions: Day 3
Experimental: A non-GLP study was conducted (Metis Labs, Ronkonkoma, NY, USA) using Imagent microbubbles, a human monoclonal antibody and ultrasound with a TE7 and P4-2S probe (Mindray North America, New Jersey, USA); settings used were 2.2 MHz frequency, 0.35 and 0.70 mechanical indexes (MI) during insonation, once every 10 seconds, a microbubble destruct pulse of 1.3 MI lasting 1,100 milliseconds was applied. Total insonation time of 5 minutes per animal was used. Imagent was conjugated with bevacizumab-awwb (Mvasi®, Amgen, Thousand Oaks, CA, USA) (“eBev”) in HT29 human colorectal carcinoma model.
Thirty-six athymic nude mice (The Jackson Laboratory, Bar Harbor, ME, USA) were randomized into 9 groups of 4 mice and once tumor volumes reached ~200 mm^3, the mice were treated once on day 1. Animals were euthanized on Day 3. The bevacizumab-awwb (either eBev or free bevacizumab-awwb) dose was 100 μL of either a 25:1, 50:1, or 5:1 dilution, depending on the experimental arm, via intravenous administration (i.v.) via jugular vein catheter (Instech One Channel Mouse Button, Instech, Plymouth Meeting, PA, USA). […]

In the case of `O=C1[O][Pt]2([NH][C@@H]3CCCC[C@H]3[NH]2)[O]C1=O` [Oxaliplatin], the half-life [1] is given as “about 14 minutes”.

For `FC(F)(F)C(F)(F)C(F)(F)C(F)(F)C(F)(F)C(F)(F)F` [Perfluorohexane], the “water solubility, times lower than octafluoropropane” value [2] is given as 704 times and the “water solubility, times lower than sulfur hexafluoride” value [2] is given as 1,000 times.

For “Avastin: recombinant humanized monoclonal IgG1 antibody, vascular endothelial growth factor inhibitor”, the “Grade 3-5 hemorrhagic events” value [3] is given as 0.4-7.0%, the “Grades 3-4 hypertension” value [3] is given as 5-18% and the “Grades 3-5 Arterial Thromboembolic Events” value [3] is given as 5%. For the same compound, the gastrointestinal perforations [3] was 0.3-3.0%, the ovarian failure [3] was 34% and the proteinuria [3] was 20%.

In the case of “bevacizumab-awwb: bevacizumab-awwb (Mvasi, Amgen), human monoclonal antibody”, the “mean concentration of bevacizumab-awwb as measured in the tumors” value ([4]; Group 2: free bevacizumab-awwb only, 25:1 dilution, i.v.) is reported as “around 3 μg” and the “mean concentration of bevacizumab-awwb as measured in the tumors” value ([4]; Groups 3a-3d: free bevacizumab-awwb 25:1 co-administered with Imagent microbubbles + ultrasound) is reported as “around 3 μg”.

From US12714676B2, “Compositions and methods for targeted delivery of therapeutics using carriers” (VESSELON, INC., priority 2020, dated 2026)
